Drawing on patent US20230272073A1, this text covers share of gated cells (P1) in quadrant Q1 (anti-IgM-PE positive, mAb01-01-APC negative) and share of gated cells (P1) in quadrant Q2 (anti-IgM-PE positive, mAb01-01-APC positive) for one molecule.

The target of the assay is IGHV3-21/IGLV3-21^G110 BCR on murine TKO cells (human) (UniProt P01871). The assay is described as follows: flow cytometry dot plot, cell mix B (1:1 IGHV3-21/IGLV3-21^G110 BCR TKO cells and BCR-negative TKO cells), 5 µg/ml mAb01-01-APC and 2 µg/ml anti-human IgM-PE. (In general: In flow cytometry, cells or beads pass a laser one at a time.)
IGHV3-21/IGLV3-21^G110 BCR on murine TKO cells (human), sequence (P01871 other isoform, or with tags, fused parts or gaps, chain 1 of 2): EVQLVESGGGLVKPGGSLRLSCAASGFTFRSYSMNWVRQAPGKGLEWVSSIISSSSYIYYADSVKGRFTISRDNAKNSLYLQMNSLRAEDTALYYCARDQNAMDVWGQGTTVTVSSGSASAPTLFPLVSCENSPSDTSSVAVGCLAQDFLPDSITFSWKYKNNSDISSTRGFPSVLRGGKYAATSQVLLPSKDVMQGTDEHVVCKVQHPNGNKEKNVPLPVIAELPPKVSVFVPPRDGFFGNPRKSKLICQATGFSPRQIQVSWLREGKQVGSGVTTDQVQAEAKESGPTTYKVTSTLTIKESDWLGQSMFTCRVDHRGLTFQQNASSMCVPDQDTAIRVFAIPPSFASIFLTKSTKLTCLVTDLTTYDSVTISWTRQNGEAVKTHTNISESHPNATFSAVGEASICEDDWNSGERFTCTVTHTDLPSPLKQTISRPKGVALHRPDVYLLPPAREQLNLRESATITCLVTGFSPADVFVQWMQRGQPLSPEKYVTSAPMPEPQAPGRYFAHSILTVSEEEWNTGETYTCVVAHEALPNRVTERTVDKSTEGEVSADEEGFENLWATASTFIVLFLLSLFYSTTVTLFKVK
IGHV3-21/IGLV3-21^G110 BCR on murine TKO cells (human), sequence (light, as listed by the source, chain 2 of 2): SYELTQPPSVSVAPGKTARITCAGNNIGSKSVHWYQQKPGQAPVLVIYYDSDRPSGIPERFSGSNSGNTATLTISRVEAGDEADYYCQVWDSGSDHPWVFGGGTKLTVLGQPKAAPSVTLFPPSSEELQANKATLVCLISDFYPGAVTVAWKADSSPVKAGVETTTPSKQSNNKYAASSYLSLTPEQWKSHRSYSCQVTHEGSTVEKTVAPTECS

B1: mAb01-01 (antibody, mouse IgG1, kappa, V domains shown)
VH: QVQLQQSGPGLVQPSQSLSITCTVSGFSLTSYGIHWVRQSPGKGLEWLGVIWRGGGTDSNAAFMSRLSITKDNSKSQVFFKMNSLQADDTAIYYCARSRYDEEESMNYWGQGTSVTVSS
VL: QIVLTQSPASLSASVGETVTITCRASGNIHSYLAWYQQKQGKSPQLLVYNAKTLADGVPSRFSGSGSGTQYSLKINSLQPEDFGSYYCQHFWNTPPTFGAGTKLELKR
On to B1, for which the share of gated cells (P1) in quadrant Q1 (anti-IgM-PE positive, mAb01-01-APC negative) worked out at 42.2% and the share of gated cells (P1) in quadrant Q2 (anti-IgM-PE positive, mAb01-01-APC positive) was determined as 1.11%.
